Results taken from patent US6987089 (dated 2006).

T1: wild type CAD (CAD-WT) (1-345), caspase-activated deoxyribonuclease, 35S-labelled (mouse, UniProt O54788 1-344, 35S label)
T1 construct: range 1-345; also called 35S-labeled CAD
T1 sequence (looked up): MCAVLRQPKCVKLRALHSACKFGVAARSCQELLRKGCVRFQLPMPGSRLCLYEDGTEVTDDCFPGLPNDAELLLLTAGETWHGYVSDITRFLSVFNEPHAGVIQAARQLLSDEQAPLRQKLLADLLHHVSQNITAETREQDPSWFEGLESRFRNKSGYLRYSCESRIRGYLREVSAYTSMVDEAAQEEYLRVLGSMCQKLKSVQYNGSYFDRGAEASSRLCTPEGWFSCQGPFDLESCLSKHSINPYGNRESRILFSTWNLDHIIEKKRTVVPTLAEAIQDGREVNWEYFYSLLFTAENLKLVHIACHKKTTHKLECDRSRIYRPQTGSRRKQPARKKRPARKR

T2: ASK1 wild-type, full length (apoptosis signal-regulating kinase 1), in vitro translated and … (UniProt Q99683 1-1374, 35S-methionine label)
T2 construct: range 1-1375; also called full length ASK1; 35S-labeled ASK1
T2 sequence (looked up): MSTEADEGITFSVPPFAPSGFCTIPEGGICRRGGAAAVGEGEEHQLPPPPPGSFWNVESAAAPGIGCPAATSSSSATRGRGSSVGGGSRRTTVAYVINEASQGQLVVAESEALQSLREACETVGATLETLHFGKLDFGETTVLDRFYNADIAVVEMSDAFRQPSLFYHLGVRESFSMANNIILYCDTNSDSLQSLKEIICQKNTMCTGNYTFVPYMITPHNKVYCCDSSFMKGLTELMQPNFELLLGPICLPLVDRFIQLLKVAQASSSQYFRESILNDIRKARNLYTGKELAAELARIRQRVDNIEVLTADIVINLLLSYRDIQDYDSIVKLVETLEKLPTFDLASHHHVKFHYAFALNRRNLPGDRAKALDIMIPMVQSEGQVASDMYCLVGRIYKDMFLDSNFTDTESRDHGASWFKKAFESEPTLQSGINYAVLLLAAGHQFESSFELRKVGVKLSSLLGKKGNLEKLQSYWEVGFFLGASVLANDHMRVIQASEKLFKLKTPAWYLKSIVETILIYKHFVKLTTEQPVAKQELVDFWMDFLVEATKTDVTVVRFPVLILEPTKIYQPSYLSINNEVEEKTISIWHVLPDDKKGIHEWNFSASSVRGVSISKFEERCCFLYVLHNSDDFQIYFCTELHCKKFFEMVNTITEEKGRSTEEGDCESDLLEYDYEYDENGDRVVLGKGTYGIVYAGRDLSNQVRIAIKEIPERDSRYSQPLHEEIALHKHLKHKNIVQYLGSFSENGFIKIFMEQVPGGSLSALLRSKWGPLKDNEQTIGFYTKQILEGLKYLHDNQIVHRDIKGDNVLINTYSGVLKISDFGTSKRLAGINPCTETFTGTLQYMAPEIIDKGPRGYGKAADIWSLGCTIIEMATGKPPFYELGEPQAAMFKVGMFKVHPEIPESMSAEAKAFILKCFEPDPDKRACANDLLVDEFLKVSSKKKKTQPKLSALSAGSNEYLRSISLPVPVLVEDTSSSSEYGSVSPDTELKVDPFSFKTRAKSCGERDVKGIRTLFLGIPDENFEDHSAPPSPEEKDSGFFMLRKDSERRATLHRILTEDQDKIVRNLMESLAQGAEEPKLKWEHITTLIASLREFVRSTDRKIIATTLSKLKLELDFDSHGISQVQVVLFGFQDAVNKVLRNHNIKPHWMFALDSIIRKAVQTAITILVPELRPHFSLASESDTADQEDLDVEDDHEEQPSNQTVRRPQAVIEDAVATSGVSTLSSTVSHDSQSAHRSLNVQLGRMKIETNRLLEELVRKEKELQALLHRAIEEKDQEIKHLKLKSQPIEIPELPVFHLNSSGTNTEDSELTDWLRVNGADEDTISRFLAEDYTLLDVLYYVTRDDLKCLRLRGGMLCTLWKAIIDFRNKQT


Legend:
[1] = target: T1, wild type CAD (CAD-WT) (1-345), …; test: GST pull-down on glutathione-agarose beads, labelled CAD, SDS-PAGE
Procedure: In detail, wild type CIA (CIA-WT) and its deletion mutants, CIA-ΔN, CIA-ΔC and CIA-CEN, all of them prepared in Example 4, were immobilized onto glutathione-agarose beads and then applied to in vitro translated [^35S] methionine-labeled CAD. Meanwhile, wild type CAD (CAD-WT) (1–345) and its deletion mutants, CAD-ΔN deficient in a […] region (Δ1–83), CAD-NT containing N-terminal half only (Δ162–345), CAD-ΔC deficient in a C-terminal region (Δ290–345), were prepared by PCR and cloned to pLexA (Clonetech). After being isolated and purified from E. coli transformants harboring the expression vectors, the recombinant proteins CAD-WT, CAD-ΔN, CAD-NT and CAD-ΔC, were labeled with ^35S radioactive isotope, and then applied to the glutathione-agarose beads onto which GST-CIA was immobilized. The proteins bounded to the glutathione-agarose beads were eluted, and separated on a gel by SDS-PAGE.

[2] = target: T2, ASK1 wild-type, full length (apoptosis …); test: GST pull-down on glutathione-agarose beads, 35S-labelled ASK1, SDS-PAGE
Procedure: After being immobilized onto glutathione-agarose beads, GST-CIA-WT and its deletion recombinant peptides were reacted with the […] [^35S] methionine-labeled ASK1 or its mutant peptides at 4° C. for 3 hours in a buffer (50 mM Tris, pH 7.5, 150 mM NaCl, 2 mM EDTA, 1 mM dithiothreitol, 0.1% NP-40 and 5 mg/ml BSA). After completion of the reaction, the glutathione-agarose beads were washed three times with a buffer (50 mM HEPES, pH 7.5, 150 mM NaCl, 1 mM EDTA, 1 mM dithiothreitol, 0.1% Tween 20). Next, ^35S-labeled peptides were eluted from the glutathione-agarose beads and analyzed by SDS-PAGE.

binding result [1]	binding result [2]	Binder
no binding	–	GST-CIA-ΔN (CIA deficient in N-terminal amino acids 1 to 78) (other, Range follows from 'deficient in N-terminal amino acids 1 to 78' of the 221-residue protein; also called CIA-AN; N-terminal region-deleted CIA peptide; not shown: N-terminal GST of pGEX-4T-1 and its linker) AAFRQVQGSEISSIDEFCRKFRLDCPLAMERIKEDRPITIKDDKGNLNRCIADVVSLFITVMDKLRLEIRAMDEIQPDLRELMETMHRMSHLPPDFEGRQTVSQWLQTLSGMSASDELDDSQVRQMLFDLESAYNAFNRFLHA
no binding	no binding	GST-CIA-CEN (CIA containing only amino acids 79 to 174) (other, also called CIA mutant peptide deficient in both terminal regions; not shown: N-terminal GST of pGEX-4T-1 and its linker) AAFRQVQGSEISSIDEFCRKFRLDCPLAMERIKEDRPITIKDDKGNLNRCIADVVSLFITVMDKLRLEIRAMDEIQPDLRELMETMHRMSHLPPDF
